Laboratory results as given in article PMC5473870, “Crystal structure of the DNA-binding domain of Myelin-gene Regulatory Factor” (Scientific Reports, 2017).

Molecular target: the molecule itself
Experiment: SEC; gel filtration on Superdex-200, 20 mM Tris-HCl pH 7.4, 50 mM NaCl, 5% glycerol; calibrated with ferritin, BSA and ovalbumin

| Protein | stoichiometry N |
| --- | --- |
| MyRF DBD after auto-cleavage (351–586 plus N-terminal his tag and linker) (domain or fragment, mouse, UniProt Q3UR85-3 351-586, looked up, Myelin-gene Regulatory Factor (MyRF), mouse, NP_001028653.1; N-terminal product (351-586) of auto-cleavage of the expressed fragment 351-717 (DBD and ICA); also called wild type MyRF DBD; source: E. coli BL21 (DE3), expressed as fragment 351-717, auto-cleaved, purified (nickel-sepharose); not shown: His6, N-terminal, kept) IKWQPHQQNKWATLYDANYKELPMLTYRVDADKGFNFSVGDDAFVCQKKNHFQVTVYIGMLGEPKYVKTPEGLKPLDCFYLKLHGVKLEALNQSINIEQSQSDRSKRPFNPVTVNLPPEQVTKVTVGRLHFSETTANNMRKKGKPNPDQRYFMLVVALQAHAQNQNYTLAAQISERIIVRASNPGQFESDSDVLWQRAQLPDTVFHHGRVGINTDRPDEALVVHGNVKVMGSLMHP | 3 |
| MyRF DBD core (proteolytically resistant, after limited proteolysis with trypsin) (domain or fragment, mouse, selenomethionyl substituted in the crystals (4 Se per molecule), Myelin-gene Regulatory Factor (MyRF), mouse, NP_001028653.1; trypsin-resistant core of about 24 kD, 210 residues, made from the expressed fragment 351-717; PDB 5H5P holds the crystallised chain; also called MyRF DBD core only; MyRF DBD (crystal structure); source: E. coli BL21 (DE3), nickel-sepharose, limited proteolysis with trypsin, purified (Superdex-75)) IKWQPHQQNKWATLYDANYKELPMLTYRVDADKGFNFSVGDDAFVCQKKNHFQVTVYIGMLGEPKYVKTPEGLKPLDCFYLKLHGVKLEALNQSINIEQSQSDRSKRPFNPVTVNLPPEQVTKVTVGRLHFSETTANNMRKKGKPNPDQRYFMLVVALQAHAQNQNYTLAAQISERIIVRAS | 3 |
